Residue numbers refer to the chain shown, from its start. *1 amine or outer side, *2 acyl side, *3 side chain or, on linkers, in order; H or OH if unused. Bridges are numbered along the chain shown (N, C = ends). Where no end group is shown, it is not given here. [ ]: non-standard residue; d: D form. The star is where a group is joined. TATA = O=C(CC[*:1])N1CN(C(=O)CC[*:2])CN(C(=O)CC[*:3])C1; Phe(2-Me) = Cc1ccccc1C[C@H](N)C(=O)O; Pent4ynoyl = C#CCCC(=O)*

The labels stand for the following.
T1: TREM2 on human iPSC macrophages (human, UniProt Q9NZC2 19-230)
T1 sequence (looked up): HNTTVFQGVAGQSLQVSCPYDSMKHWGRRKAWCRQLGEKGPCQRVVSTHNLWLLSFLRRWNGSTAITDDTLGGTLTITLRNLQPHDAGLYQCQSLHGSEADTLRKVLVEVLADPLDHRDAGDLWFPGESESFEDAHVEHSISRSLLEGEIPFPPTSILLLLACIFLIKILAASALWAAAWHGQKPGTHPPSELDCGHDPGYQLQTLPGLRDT

T2: Cyno TREM2 (Cyno, UniProt A0A2K5UY34 49-161)
T2 construct: range 19-131; also called Cyno BLI
T2 sequence: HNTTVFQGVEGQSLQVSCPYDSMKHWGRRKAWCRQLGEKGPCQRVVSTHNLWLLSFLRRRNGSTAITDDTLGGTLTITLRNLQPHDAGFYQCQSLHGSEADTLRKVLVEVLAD

T3: Human TREM2 extracellular domain (ECD), residues 19-131, C-terminally biotinylated, glycosylated (human, UniProt Q9NZC2 19-131, C-terminally biotinylated; glycosylated)
T3 construct: range 19-131; loaded on Superstreptavidin biosensors; also called Human BLI glycosylated
T3 sequence (looked up): T2 sequence with E10A, R60W, F89L

T4: Human TREM2 extracellular domain (ECD), residues 19-131, C-terminally biotinylated, deglycosylated (human, UniProt Q9NZC2 19-131, C-terminally biotinylated; deglycosylated)
T4 construct: range 19-131; loaded on Superstreptavidin biosensors; also called triggering receptor expressed on myeloid cells 2; Human BLI (deglycosylated)
T4 sequence (looked up): T2 sequence with E10A, R60W, F89L

B1: BCY19768 (peptide)
peptide: ACTSYCFWPFYQCA-NH2
modifications: linker 2-6-13 via TATA; N-terminus assumed
SMILES: C[C@H](N)C(=O)N[C@H]1CSCCC(=O)N2CN3CN(C2)C(=O)CCSC[C@H](NC(=O)[C@H](Cc2ccc(O)cc2)NC(=O)[C@H](CO)NC(=O)[C@H]([C@@H](C)O)NC1=O)C(=O)N[C@@H](Cc1ccccc1)C(=O)N[C@@H](Cc1c[nH]c2ccccc12)C(=O)N1CCC[C@H]1C(=O)N[C@@H](Cc1ccccc1)C(=O)N[C@@H](Cc1ccc(O)cc1)C(=O)N[C@@H](CCC(N)=O)C(=O)N[C@H](C(=O)N[C@@H](C)C(N)=O)CSCCC3=O
B2: BCY20059 (peptide)
peptide: CSEYCFXPFYHC
modifications: N-terminal acetyl (Ac); CiSEYCiiF[Trp(Me)]PFYHCiii; Ci, Cii, Ciii on TATA scaffold
B3: BCY20052 (peptide)
peptide: CSEYCXWPFYHC
modifications: N-terminal acetyl (Ac); CiSEYCii[3FPhe]WPFYHCiii; Ci, Cii, Ciii on TATA scaffold
B4: BCY20060 (peptide)
peptide: CSEYCFXPFYHC
modifications: N-terminal acetyl (Ac); CiSEYCiiF[6MeTrp]PFYHCiii; Ci, Cii, Ciii on TATA scaffold
B5: BCY20066 (peptide)
peptide: CSEYCFWXFYHC
modifications: N-terminal acetyl (Ac); CiSEYCiiFW[44DFP]FYHCiii; Ci, Cii, Ciii on TATA scaffold
B6: BCY20053 (peptide)
peptide: CSEYCXWPFYHC
modifications: N-terminal acetyl (Ac); CiSEYCii[4FPhe]WPFYHCiii; Ci, Cii, Ciii on TATA scaffold
B7: BCY20075 (peptide)
peptide: CSEYCFWPXYHC
modifications: N-terminal acetyl (Ac); CiSEYCiiFWP[44BPA]YHCiii; Ci, Cii, Ciii on TATA scaffold
B8: BCY20071 (peptide)
peptide: CSEYCFWPXYHC
modifications: N-terminal acetyl (Ac); CiSEYCiiFWP[2MePhe]YHCiii; Ci, Cii, Ciii on TATA scaffold
B9: BCY20073 (peptide)
peptide: CSEYCFWPXYHC
modifications: N-terminal acetyl (Ac); CiSEYCiiFWP[4FPhe]YHCiii; Ci, Cii, Ciii on TATA scaffold

The first assay has as its target T1, TREM2 on human iPSC macrophages. Put plainly: cell-based or functional assay.
Turning to B1, the “pSYK (µM)” value turned out to be 7.8 µM.

Regarding ACSEYCFWPFYHCA (linker 2-6-13 via TATA) [BCY16054], the “pSYK (µM)” value was found to be 10.7 µM.

In the next assay the target is T2, Cyno TREM2. Put plainly: BLI steady state, cyno TREM2 on sensor. The protocol: (§1) Bio-layer interferometry was performed on an Octet RED384® system (Sartorius) at 25° C. in a buffer containing 50 mM HEPES (pH 7.5), 150 mM NaCl and 0.1% Tween. […] Reference wells containing no bicycle peptides and reference sensors loaded with an unrelated protein (His-tagged MLLT3a) were subjected to the same assay protocol and double reference subtraction was used for processing to account for non-specific binding. Traces were analysed using Octet Software (Version 11.0). Association and dissociation curves were globally fit and the response at equilibrium (Req) plotted against concentration to obtain steady-state KD values.
ACSEYCFWPFYHCA (linker 2-6-13 via TATA) [BCY16054] had a Kd of 3.3 µM.

The next assay addresses T3, Human TREM2 extracellular domain (ECD), …. The assay is described as follows: BLI steady state, glycosylated human TREM2 ECD on sensor. On the procedure:
as §1
CSEYCXWPFYHC (N-terminal acetyl (Ac); CiSEYCii[1Nal]WPFYHCiii; Ci, Cii, Ciii on TATA scaffold) [BCY20054]: binding was put at a Kd of 1.83 µM.

With B2, binding was characterised by a dissociation constant (Kd) of 1.5 µM.

The molecule B3 had a Kd of 1.25 µM. The Kd values of the last two molecules are within 1.5-fold of each other.

In the case of B4, binding was put at a Kd of 1.11 µM.

In the case of Ac-CSEYCFWPFWHC (linker 1-5-12 via TATA) [BCY20077], the Kd is 0.75 µM.

Consider B5, for which the Kd was 0.98 µM. This Kd and that of the molecule before are within 1.5-fold of each other.

For the molecule B6, the Kd worked out at 1.71 µM.

In turn, CSEYCFWPXYHC (N-terminal acetyl (Ac); CiSEYCiiFWP[2Nal]YHCiii; Ci, Cii, Ciii on TATA scaffold) [BCY20076] registered a Kd of 1.29 µM. The Kd values of the last two molecules are within 1.5-fold of each other.

Ac-CSEYCF[Phe(2-Me)]PFYHC (linker 1-5-12 via TATA) [BCY20063] showed a Kd of 1.58 µM. This Kd and that of the molecule before are within 1.5-fold of each other.

K(Pent4ynoyl)CSEYCFWPFYHC (linker 2-6-13 via TATA) [BCY20042] yielded a dissociation constant (Kd) of 1.35 µM. This Kd and that of the molecule before are within 1.5-fold of each other.

The molecule B7 showed an equilibrium dissociation constant (Kd) of 1.51 µM.

Consider B8, for which the dissociation constant Kd is 0.78 µM. Compared with the last molecule, the Kd is about 1.9-fold lower.

For the molecule B9, the Kd worked out at 2.13 µM.

A further assay deals with T4, Human TREM2 extracellular domain (ECD), …. Put plainly: BLI steady state, deglycosylated human TREM2 ECD on sensor. The protocol:
as §1
For B1, the Kd worked out at 0.9 µM. That is a sub-micromolar value.

Molecule CSEYCXWPFYHC (N-terminal acetyl (Ac); CiSEYCii[1Nal]WPFYHCiii; Ci, Cii, Ciii on TATA scaffold) [BCY20054] displayed a Kd of 2.54 µM.

For B2, the dissociation constant Kd came out at 1.81 µM. This Kd and that of the molecule before are within 1.5-fold of each other.

The molecule B3 registered a dissociation constant (Kd) of 4.88 µM. Against the preceding molecule, the Kd is about 2.7-fold higher.

Consider B4, for which the Kd came to 1.39 µM.

The molecule B5 showed a Kd of 1.86 µM. This Kd and that of the molecule before are within 1.5-fold of each other.

Consider B6, for which the affinity, expressed as Kd, was 2.01 µM. This Kd and that of the molecule before are within 1.5-fold of each other.

Regarding Ac-CSEYCF[Phe(2-Me)]PFYHC (linker 1-5-12 via TATA) [BCY20063], the Kd came out at 1.3 µM. Against the preceding molecule, the Kd is about 1.5-fold lower.

As to ACSEYCFWPFYHCA (linker 2-6-13 via TATA) [BCY16054], the Kd was determined as 0.7 µM.

Take K(Pent4ynoyl)CSEYCFWPFYHC (linker 2-6-13 via TATA) [BCY20042]: the Kd came out at 1.19 µM.

B7: binding was put at a Kd of 2.4 µM.

For B8, the affinity, expressed as Kd, was 0.91 µM.

Take B9: the dissociation constant (Kd) was found to be 2.32 µM.

A further assay shares this target. Put plainly: Bio-layer interferometry (Octet), direct binding: biotinylated human TREM2 ECD loaded on Superstreptavidin biosensors, peptide in solution at 0.195 to 12.5 µM (7 traces). The protocol:
as §1
For orientation: In BLI a coated tip is dipped into the sample, and binding shifts an interference pattern.
ACSEYCFWPFYHCA (linker 2-6-13 via TATA) [BCY16054] returned a Kd of 0.68 µM.

By Kd is commonly meant a measure of binding affinity in units of concentration. Low readings indicate higher affinity, high ones lower affinity.

Values taken from patent US20220296726A1 (Bicycle, published 2022).
